# Experiments:
# [1] = system: (4-trans-L-Hyp)-Ala-Ser-Chg-Gln-Ser-Leu-Dox
# [2] = system: Ac-(4-trans-L-Hyp)ASChgQ-SLacid
# [3] = system: Ac-(4-trans-L-Hyp)ASChgQ-SThi-acid
# [4] = system: Ac-(4-trans-L-Hyp)ASChgQ-StBUAla-DOX (3′)
# [5] = system: Ac-PASChgQ-SL-acid
# [6] = system: Ac-PSSChgQ-SV-acid
# [7] = system: Glutaryl-(4-trans-L-Hyp)ASChgQ-SI-DOX (3′)
# [8] = system: Glutaryl-(4-trans-L-Hyp)ASChgQ-SV-DOX (3′)
# [9] = system: Glutaryl-(4-trans-L-Hyp)SSChgQ-SI-DOX (3′)
# [10] = system: Glutaryl-(4-trans-L-Hyp)SSChgQ-SL-DOX (3′)
# [11] = system: Malonyl-(4-trans-L-Hyp)ASChgQ-SL-DOX (3′)
# [12] = system: PEG(2)-(4-trans-L-Hyp)ASChgQ-SL-DOX (3′)
# [13] = system: PEG(2)-(4-trans-L-Hyp)ASChgQ-SThi-DOX (3′)
# [14] = system: PEG(2)-(4-trans-L-Hyp)SSChgQ-SL-DOX (3′)
# [15] = system: PEG(4)-(4-trans-L-Hyp)-SSChgQ-SL-DOX (3′)
# [16] = system: Succinyl-(4-trans-L-Hyp)ASChgQ-SAbu-DOX (3′)
# [17] = system: Succinyl-(4-trans-L-Hyp)ASChgQ-SI-DOX (3′)
# [18] = system: Succinyl-(4-trans-L-Hyp)ASChgQ-SThi-DOX (3′)
# [19] = system: Succinyl-(4-trans-L-Hyp)ASChgQ-SV-DOX (3′)
# [20] = system: Succinyl-(4-trans-L-Hyp)SSChgQ-SI-DOX (3′)
# [21] = system: Succinyl-3,4-(diOH)PASChgQ-SL-DOX (3′)
# [22] = system: [N-Ac-(4-trans-L-Hyp)]-Ala-Ser-Chg-Gln-Ser-Leu-Dox
# [23] = system: [N-Glutaryl-(4-trans-L-Hyp)]-Ala-Ser-Chg-Gln-Ser-Leu-Dox
substance,measurement,setting,value
free prostate specific antigen (PSA),time required for 50% cleavage of the oligopeptide,[1],50% cleavage occurred in less than 2 hours for those conjugates
same,Time to 50% Substrate Cleavage by PSA,[2],75 min
same,Time to 50% Substrate Cleavage by PSA,[3],20 min
same,Time to 50% Substrate Cleavage by PSA,[4],25 min
same,Time to 50% Substrate Cleavage by PSA,[5],150 min
same,Time to 50% Substrate Cleavage by PSA,[6],120 min
same,time required for 50% cleavage of the oligopeptide,[7],50% cleavage occurred in less than 2 hours for those conjugates
same,time required for 50% cleavage of the oligopeptide,[8],50% cleavage occurred in less than 2 hours for those conjugates
same,time required for 50% cleavage of the oligopeptide,[9],50% cleavage occurred in less than 2 hours for those conjugates
same,time required for 50% cleavage of the oligopeptide,[10],50% cleavage occurred in less than 2 hours for those conjugates
same,time required for 50% cleavage of the oligopeptide,[11],50% cleavage occurred in less than 2 hours for those conjugates
same,Time to 50% Substrate Cleavage by PSA,[12],20 min
same,time required for 50% cleavage of the oligopeptide,[13],50% cleavage occurred in less than 2 hours for those conjugates
same,time required for 50% cleavage of the oligopeptide,[14],50% cleavage occurred in less than 2 hours for those conjugates
same,time required for 50% cleavage of the oligopeptide,[15],50% cleavage occurred in less than 2 hours for those conjugates
same,time required for 50% cleavage of the oligopeptide,[16],50% cleavage occurred in less than 2 hours for those conjugates
same,time required for 50% cleavage of the oligopeptide,[17],50% cleavage occurred in less than 2 hours for those conjugates
same,time required for 50% cleavage of the oligopeptide,[18],50% cleavage occurred in less than 2 hours for those conjugates
same,time required for 50% cleavage of the oligopeptide,[19],50% cleavage occurred in less than 2 hours for those conjugates
same,time required for 50% cleavage of the oligopeptide,[20],50% cleavage occurred in less than 2 hours for those conjugates
same,time required for 50% cleavage of the oligopeptide,[21],50% cleavage occurred in less than 2 hours for those conjugates
same,Time to 50% Substrate Cleavage by PSA,[22],20 min
same,time required for 50% cleavage of the oligopeptide,[23],50% cleavage occurred in less than 2 hours for those conjugates

# — patent publication US20020115596
